From paper doi:10.1101/2023.12.24.573241

Columns and labels:
[1] = molecular target: DmUNC-104^bris (full-length DmUNC-104 R562H, C-terminal sfGFP and 2xStrep-tag II) (Drosophila melanogaster) (UniProt A1ZAJ2); assay: mass photometry
[2] = molecular target: Taxol-stabilized microtubules polymerized from pig brain tubulin, labeled with biotin and AZDye647 (pig) (UniProt P02550); assay: TIRF single-molecule motility assay
Sequence of UniProt P02550 (P02550 whole entry): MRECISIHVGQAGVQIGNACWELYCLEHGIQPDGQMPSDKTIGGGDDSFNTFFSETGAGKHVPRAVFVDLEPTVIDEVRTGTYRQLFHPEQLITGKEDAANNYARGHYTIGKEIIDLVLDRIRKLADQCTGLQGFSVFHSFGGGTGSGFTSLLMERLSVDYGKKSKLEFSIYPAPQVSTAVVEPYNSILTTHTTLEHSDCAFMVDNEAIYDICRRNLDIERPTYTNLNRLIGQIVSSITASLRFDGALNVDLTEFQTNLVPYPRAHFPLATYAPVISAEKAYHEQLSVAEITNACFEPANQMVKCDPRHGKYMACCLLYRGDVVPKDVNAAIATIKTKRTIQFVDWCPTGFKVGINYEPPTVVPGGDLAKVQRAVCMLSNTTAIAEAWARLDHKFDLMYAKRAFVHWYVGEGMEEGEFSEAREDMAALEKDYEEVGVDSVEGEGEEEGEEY

percent of particles as dimer [1]: 71%
stoichiometry N [1]: 2
landing rate (median) (molecules/µm/s) [2]: 0.034
landing rate of motile motors (median) (molecules/µm/s) [2]: 0.015
Substance: DmUNC-104^bris (full-length DmUNC-104 R562H, C-terminal sfGFP and 2xStrep-tag II) (from UniProt A1ZAJ2 1-1670) (natural protein)
